Results as given in patent US20080057519A1.

Legend:
[1] = target: FLJ32028 with an HA epitope tag inserted at the predicted N-terminal end of the protein (human) (UniProt Q6P9G4); assay: flow cytometry on intact transfected 293-EBNA cells, streptavidin-PE detection
[2] = target: FLJ32028 with an HA epitope tag fused to the predicted C-terminal end of the protein (human) (UniProt Q6P9G4); assay: as above

% of transfected GFP+ cells positive for HA [1]: > 99%
% of transfected GFP+ cells negative for HA [2]: 85%
Substance: biotinylated Rat Anti-HA antibody (Roche)
